Test results published in paper PMC12295313 (2025).
Residue numbers refer to the chain shown, from its start. Values belong to the binder of their own block, whether it stands above or below them.

Assays:
[1] = target: T1, FGFR1c ectodomain (extracellular ligand-binding domain of FGFR1c), P11362; assay: SPR; settings: chains chain, remark: other sources report otherwise
T1 chain: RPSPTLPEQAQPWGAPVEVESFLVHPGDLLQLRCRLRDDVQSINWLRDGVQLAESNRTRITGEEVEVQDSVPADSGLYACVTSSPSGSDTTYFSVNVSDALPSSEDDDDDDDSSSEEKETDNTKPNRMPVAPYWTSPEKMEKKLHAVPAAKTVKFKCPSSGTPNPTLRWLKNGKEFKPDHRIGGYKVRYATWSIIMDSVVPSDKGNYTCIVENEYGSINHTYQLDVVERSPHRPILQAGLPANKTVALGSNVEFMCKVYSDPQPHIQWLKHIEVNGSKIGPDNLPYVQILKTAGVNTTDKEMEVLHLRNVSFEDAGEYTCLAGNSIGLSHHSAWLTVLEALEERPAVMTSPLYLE

[2] = target: T2, FGFR1c ectodomain (extracellular ligand-binding domain of FGFR1c) (UniProt P11362 22-376); assay: SPR
T2 chain: T1 chain

Kd [1]: 7.96 µM
B1: Recombinant human wild-type FGF21 (His29-Ser209), Q9NSA1 29-209 (protein)
chain: HPIPDSSPLLQFGGQVRQRYLYTDDAQQTEAHLEIREDGTVGGAADQSPESLLQLKALKPGVIQILGVKTSRFLCQRPDGALYGSLHFDPEACSFRELLLEDGYNVYQSEAHGLPLHLPGNKSPHRDPAPRGPARFLPLPGLPPALPEPPGILAPQPPDVGSSDPLSMVGPSQGRSPSYAS

Kd [2]: 3.94 µM
B2: FGF21^D2D3 (FGF21 with its R96–V106 region replaced by the L101–T111 segment of FGF1) (ligand)
chain: B1 chain with R96L, L98R, L100E, D102N, G103H, V106T
